Assay results published in the supplement of paper PMC9112550, “Optimization of the antimicrobial peptide Bac7 by deep mutational scanning” (BMC Biology, 2022).

System: Escherichia coli TOP10
Assay: shrunken log2 fold change of peptide-encoding DNA abundance (4.5 h post-induction vs induction); higher = less antimicrobial activity (less host growth inhibition)
Details: time post-induction: 4.5 h; library: site-saturation at positions 5, 18, 19, 20
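Further: peptides expressed intracellularly from a pBAD plasmid library in pooled LB shake-flask culture, induced with 0.3% L-arabinose, DNA abundance read by NGS, three biological replicates, DESeq2 with apeglm shrinkage.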

Row | Sequence | shrunken log2 fold change
1 | RRIRWRPPRLPRPRPRPCISPRP | 0.169
2 | RRIRWRPPRLPRPRPRPCITPRP | -0.0175
3 | RRIRWRPPRLPRPRPRPCKKPRP | 0.0155
4 | RRIRWRPPRLPRPRPRPCKWPRP | -0.275
5 | RRIRWRPPRLPRPRPRPCLFPRP | -0.00127
6 | RRIRWRPPRLPRPRPRPCLMPRP | -0.225
7 | RRIRWRPPRLPRPRPRPCLWPRP | 0.0333
8 | RRIRWRPPRLPRPRPRPCMAPRP | 0.312
9 | RRIRWRPPRLPRPRPRPCNGPRP | -0.0973
10 | RRIRWRPPRLPRPRPRPCPFPRP | -0.646
11 | RRIRWRPPRLPRPRPRPCPNPRP | -0.184
12 | RRIRWRPPRLPRPRPRPCQAPRP | 0.201
13 | RRIRWRPPRLPRPRPRPCQVPRP | -0.0191
14 | RRIRWRPPRLPRPRPRPCQYPRP | 0.0863
15 | RRIRWRPPRLPRPRPRPCRYPRP | -0.129
16 | RRIRWRPPRLPRPRPRPCSSPRP | -0.259
17 | RRIRWRPPRLPRPRPRPCVSPRP | 0.144
18 | RRIRWRPPRLPRPRPRPCYMPRP | -0.282
19 | RRIRWRPPRLPRPRPRPDALPRP | 0.63
20 | RRIRWRPPRLPRPRPRPDCGPRP | 0.885
21 | RRIRWRPPRLPRPRPRPDDCPRP | -0.0829
22 | RRIRWRPPRLPRPRPRPDDQPRP | -0.0297
23 | RRIRWRPPRLPRPRPRPDEDPRP | 0.299
24 | RRIRWRPPRLPRPRPRPDEFPRP | 0.196
25 | RRIRWRPPRLPRPRPRPDEHPRP | 0.0519

Row | Sequence | shrunken log2 fold change
26 | RRIRWRPPRLPRPRPRPDGFPRP | -0.0231
27 | RRIRWRPPRLPRPRPRPDIAPRP | 0.0944
28 | RRIRWRPPRLPRPRPRPDKCPRP | -0.134
29 | RRIRWRPPRLPRPRPRPDMHPRP | 0.199
30 | RRIRWRPPRLPRPRPRPDNQPRP | -0.265
31 | RRIRWRPPRLPRPRPRPDPFPRP | -0.0639
32 | RRIRWRPPRLPRPRPRPDQAPRP | 0.11
33 | RRIRWRPPRLPRPRPRPDQSPRP | 0.0237
34 | RRIRWRPPRLPRPRPRPDQYPRP | -0.154
35 | RRIRWRPPRLPRPRPRPDRYPRP | -0.0301
36 | RRIRWRPPRLPRPRPRPDSQPRP | -0.0844
37 | RRIRWRPPRLPRPRPRPDSTPRP | -0.0382
38 | RRIRWRPPRLPRPRPRPDTHPRP | 0.219
39 | RRIRWRPPRLPRPRPRPDVRPRP | -0.0136
40 | RRIRWRPPRLPRPRPRPDWPPRP | 0.332
41 | RRIRWRPPRLPRPRPRPEAEPRP | 1.53
42 | RRIRWRPPRLPRPRPRPEDKPRP | -0.028
43 | RRIRWRPPRLPRPRPRPEFEPRP | 0.0113
44 | RRIRWRPPRLPRPRPRPEFVPRP | 0.423
45 | RRIRWRPPRLPRPRPRPEHWPRP | 0.83
46 | RRIRWRPPRLPRPRPRPEIFPRP | 0.0932
47 | RRIRWRPPRLPRPRPRPEIRPRP | 0.00534
48 | RRIRWRPPRLPRPRPRPEISPRP | -0.161
49 | RRIRWRPPRLPRPRPRPEIWPRP | 1
50 | RRIRWRPPRLPRPRPRPELSPRP | 0.101

Row | Sequence | shrunken log2 fold change
51 | RRIRWRPPRLPRPRPRPENGPRP | -0.109
52 | RRIRWRPPRLPRPRPRPENHPRP | -0.176
53 | RRIRWRPPRLPRPRPRPENTPRP | 0.167
54 | RRIRWRPPRLPRPRPRPEPMPRP | 0.38
55 | RRIRWRPPRLPRPRPRPEPQPRP | 0.818
56 | RRIRWRPPRLPRPRPRPEPVPRP | -0.0131
57 | RRIRWRPPRLPRPRPRPEPYPRP | 0.0876
58 | RRIRWRPPRLPRPRPRPERQPRP | 0.353
59 | RRIRWRPPRLPRPRPRPERWPRP | 1.14
60 | RRIRWRPPRLPRPRPRPETGPRP | 0.396
61 | RRIRWRPPRLPRPRPRPETPPRP | 1.33
62 | RRIRWRPPRLPRPRPRPEYEPRP | -0.0434
63 | RRIRWRPPRLPRPRPRPEYIPRP | -0.0519
64 | RRIRWRPPRLPRPRPRPFAGPRP | 0.0847
65 | RRIRWRPPRLPRPRPRPFATPRP | 0.834
66 | RRIRWRPPRLPRPRPRPFAVPRP | 0.157
67 | RRIRWRPPRLPRPRPRPFCPPRP | -0.318
68 | RRIRWRPPRLPRPRPRPFDAPRP | 0.029
69 | RRIRWRPPRLPRPRPRPFFVPRP | 0.173
70 | RRIRWRPPRLPRPRPRPFGAPRP | 0.197
71 | RRIRWRPPRLPRPRPRPFGRPRP | -0.0754
72 | RRIRWRPPRLPRPRPRPFGTPRP | 0.00184
73 | RRIRWRPPRLPRPRPRPFIDPRP | -0.046
74 | RRIRWRPPRLPRPRPRPFKFPRP | -0.174
75 | RRIRWRPPRLPRPRPRPFLHPRP | -0.772

Row | Sequence | shrunken log2 fold change
76 | RRIRWRPPRLPRPRPRPFMDPRP | -0.41
77 | RRIRWRPPRLPRPRPRPFNDPRP | -0.153
78 | RRIRWRPPRLPRPRPRPFNRPRP | -0.0167
79 | RRIRWRPPRLPRPRPRPFPAPRP | 0.342
80 | RRIRWRPPRLPRPRPRPFPMPRP | -0.111
81 | RRIRWRPPRLPRPRPRPFQQPRP | -0.0106
82 | RRIRWRPPRLPRPRPRPFQWPRP | 0.236
83 | RRIRWRPPRLPRPRPRPFREPRP | -0.105
84 | RRIRWRPPRLPRPRPRPFRFPRP | -0.0501
85 | RRIRWRPPRLPRPRPRPFRGPRP | 0.0269
86 | RRIRWRPPRLPRPRPRPFRLPRP | -0.394
87 | RRIRWRPPRLPRPRPRPFRNPRP | -0.209
88 | RRIRWRPPRLPRPRPRPFSSPRP | -0.374
89 | RRIRWRPPRLPRPRPRPFSTPRP | -0.14
90 | RRIRWRPPRLPRPRPRPFSYPRP | -0.203
91 | RRIRWRPPRLPRPRPRPFTAPRP | -0.0343
92 | RRIRWRPPRLPRPRPRPFTQPRP | -0.0585
93 | RRIRWRPPRLPRPRPRPFTRPRP | -0.00433
94 | RRIRWRPPRLPRPRPRPFTWPRP | -0.119
95 | RRIRWRPPRLPRPRPRPFVWPRP | 0.128
96 | RRIRWRPPRLPRPRPRPFWAPRP | 0.274
97 | RRIRWRPPRLPRPRPRPFYDPRP | -0.21
98 | RRIRWRPPRLPRPRPRPGARPRP | 0.659
99 | RRIRWRPPRLPRPRPRPGCNPRP | -0.0626
100 | RRIRWRPPRLPRPRPRPGCSPRP | 0.551

Row | Sequence | shrunken log2 fold change
101 | RRIRWRPPRLPRPRPRPGDPPRP | 1.14
102 | RRIRWRPPRLPRPRPRPGFRPRP | 0.221
103 | RRIRWRPPRLPRPRPRPGIIPRP | -0.0357
104 | RRIRWRPPRLPRPRPRPGIQPRP | 0.468
105 | RRIRWRPPRLPRPRPRPGISPRP | -0.00138
106 | RRIRWRPPRLPRPRPRPGKGPRP | -0.0357
107 | RRIRWRPPRLPRPRPRPGLGPRP | 0.83
108 | RRIRWRPPRLPRPRPRPGLQPRP | 0.0651
109 | RRIRWRPPRLPRPRPRPGLWPRP | 1.16
110 | RRIRWRPPRLPRPRPRPGMGPRP | 0.525
111 | RRIRWRPPRLPRPRPRPGPLPRP | 0.0252
112 | RRIRWRPPRLPRPRPRPGPSPRP | 0.223
113 | RRIRWRPPRLPRPRPRPGQCPRP | 0.00553
114 | RRIRWRPPRLPRPRPRPGQHPRP | -0.172
115 | RRIRWRPPRLPRPRPRPGQSPRP | 0.572
116 | RRIRWRPPRLPRPRPRPGREPRP | 0.412
117 | RRIRWRPPRLPRPRPRPGRTPRP | 0.0519
118 | RRIRWRPPRLPRPRPRPGSLPRP | 0.0223
119 | RRIRWRPPRLPRPRPRPGSPPRP | 0.0119
120 | RRIRWRPPRLPRPRPRPGSWPRP | 0.517
121 | RRIRWRPPRLPRPRPRPGVCPRP | 0.681
122 | RRIRWRPPRLPRPRPRPGVRPRP | 0.304
123 | RRIRWRPPRLPRPRPRPGWCPRP | 0.362
124 | RRIRWRPPRLPRPRPRPGWEPRP | 0.292
125 | RRIRWRPPRLPRPRPRPHADPRP | 0.708

Row | Sequence | shrunken log2 fold change
126 | RRIRWRPPRLPRPRPRPHAPPRP | 0.517
127 | RRIRWRPPRLPRPRPRPHCYPRP | -0.0542
128 | RRIRWRPPRLPRPRPRPHDEPRP | -0.2
129 | RRIRWRPPRLPRPRPRPHDGPRP | -0.00986
130 | RRIRWRPPRLPRPRPRPHDRPRP | 0.00489
131 | RRIRWRPPRLPRPRPRPHECPRP | -0.0602
132 | RRIRWRPPRLPRPRPRPHELPRP | -0.0349
133 | RRIRWRPPRLPRPRPRPHFEPRP | -0.165
134 | RRIRWRPPRLPRPRPRPHGPPRP | 0.0026
135 | RRIRWRPPRLPRPRPRPHHSPRP | -0.667
136 | RRIRWRPPRLPRPRPRPHIFPRP | -0.494
137 | RRIRWRPPRLPRPRPRPHKDPRP | -0.115
138 | RRIRWRPPRLPRPRPRPHLWPRP | 0.191
139 | RRIRWRPPRLPRPRPRPHMIPRP | -0.219
140 | RRIRWRPPRLPRPRPRPHNTPRP | -0.391
141 | RRIRWRPPRLPRPRPRPHPKPRP | 0.408
142 | RRIRWRPPRLPRPRPRPHPVPRP | -0.0118
143 | RRIRWRPPRLPRPRPRPHSFPRP | -0.266
144 | RRIRWRPPRLPRPRPRPHSLPRP | -0.262
145 | RRIRWRPPRLPRPRPRPHTLPRP | -0.325
146 | RRIRWRPPRLPRPRPRPHVTPRP | -0.264
147 | RRIRWRPPRLPRPRPRPHWRPRP | 0.329
148 | RRIRWRPPRLPRPRPRPHYRPRP | 0.0266
149 | RRIRWRPPRLPRPRPRPIAVPRP | 0.187
150 | RRIRWRPPRLPRPRPRPICNPRP | -0.0133
